Experimental data reported in paper PMC4136804.

Columns and labels:
[1] = biological target: GST-tagged SUMO-2(x3); test: pull-down; as the plate assay, equal cpm of radiolabeled protein per well, eluted protein counted by liquid scintillation; mean of three experiments, compared with GST alone
[2] = biological target: GST-tagged SUMO-2 (UniProt P61956); test: as above

Chain of GST-tagged SUMO-2(x3) (main, as listed by the source): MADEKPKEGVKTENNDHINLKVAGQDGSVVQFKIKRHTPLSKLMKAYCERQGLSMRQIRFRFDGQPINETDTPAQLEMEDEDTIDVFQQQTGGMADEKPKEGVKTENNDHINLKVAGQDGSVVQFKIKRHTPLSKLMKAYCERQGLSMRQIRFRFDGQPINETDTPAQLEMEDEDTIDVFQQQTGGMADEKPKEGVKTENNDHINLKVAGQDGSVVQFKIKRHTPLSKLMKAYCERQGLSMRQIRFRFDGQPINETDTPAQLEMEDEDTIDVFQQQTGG
Chain of pyruvate kinase fused with the first two MYM-type zinc fingers of ZNF261 (domain or fragment) (Q14202 327-738): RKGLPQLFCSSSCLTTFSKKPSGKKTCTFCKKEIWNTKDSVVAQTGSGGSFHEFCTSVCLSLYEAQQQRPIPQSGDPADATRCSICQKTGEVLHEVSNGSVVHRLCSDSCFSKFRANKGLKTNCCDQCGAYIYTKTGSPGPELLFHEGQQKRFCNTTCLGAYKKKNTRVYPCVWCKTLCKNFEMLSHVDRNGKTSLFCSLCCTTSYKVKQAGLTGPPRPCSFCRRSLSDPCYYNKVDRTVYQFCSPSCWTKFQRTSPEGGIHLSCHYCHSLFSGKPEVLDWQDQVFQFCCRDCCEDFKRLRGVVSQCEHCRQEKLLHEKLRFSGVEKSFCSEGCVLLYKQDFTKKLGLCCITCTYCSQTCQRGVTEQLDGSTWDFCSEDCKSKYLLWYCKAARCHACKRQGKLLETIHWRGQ
Chain of pyruvate kinase fused with a single MYM-type zinc finger of ZNF261 (domain or fragment) (Q14202 327-738): as above

| fold increase in binding compared to GST alone [1] [fold] | fold increase in binding compared to GST alone [2] [fold] | fold increase in binding over the single-finger fusion [1] [fold] | fold increase in binding over the single-finger fusion [2] [fold] | Substance |
| --- | --- | --- | --- | --- |
| 3 | 1.5 |  |  | pyruvate kinase fused with a single MYM-type zinc finger of ZNF261 (domain or fragment) |
|  |  | > 2 | > 2 | pyruvate kinase fused with the first two MYM-type zinc fingers of ZNF261 (domain or fragment) |
